Measured values from PMC7652922.

Test: L-[14C]arginine to L-[14C]citrulline conversion, transfected HEK293, low glucose
Conditions: glycan lost; control: WT-eNOS

B1: endothelial nitric oxide synthase (eNOS): T866A (protein)
parent chain: MGNLKSVAQEPGPPCGLGLGLGLGLCGKQGPATPAPEPSRAPASLLPPAPEHSPPSSPLTQPPEGPKFPRVKNWEVGSITYDTLSAQAQQDGPCTPRRCLGSLVFPRKLQGRPSPGPPAPEQLLSQARDFINQYYSSIKRSGSQAHEQRLQEVEAEVAATGTYQLRESELVFGAKQAWRNAPRCVGRIQWGKLQVFDARDCRSAQEMFTYICNHIKYATNRGNLRSAITVFPQRCPGRGDFRIWNSQLVRYAGYRQQDGSVRGDPANVEITELCIQHGWTPGNGRFDVLPLLLQAPDDPPELFLLPPELVLEVPLEHPTLEWFAALGLRWYALPAVSNMLLEIGGLEFPAAPFSGWYMSTEIGTRNLCDPHRYNILEDVAVCMDLDTRTTSSLWKDKAAVEINVAVLHSYQLAKVTIVDHHAATASFMKHLENEQKARGGCPADWAWIVPPISGSLTPVFHQEMVNYFLSPAFRYQPDPWKGSAAKGTGITRKKTFKEVANAVKISASLMGTVMAKRVKATILYGSETGRAQSYAQQLGRLFRKAFDPRVLCMDEYDVVSLEHETLVLVVTSTFGNGDPPENGESFAAALMEMSGPYNSSPRPEQHKSYKIRFNSISCSDPLVSSWRRKRKESSNTDSAGALGTLRFCVFGLGSRAYPHFCAFARAVDTRLEELGGERLLQLGQGDELCGQEEAFRGWAQAAFQAACETFCVGEDAKAAARDIFSPKRSWKRQRYRLSAQAEGLQLLPGLIHVHRRKMFQATIRSVENLQSSKSTRATILVRLDTGGQEGLQYQPGDHIGVCPPNRPGLVEALLSRVEDPPAPTEPVAVEQLEKGSPGGPPPGWVRDPRLPPCTLRQALTFFLDITSPPSPQLLRLLSTLAEEPREQQELEALSQDPRRYEEWKWFRCPTLLEVLEQFPSVALPAPLLLTQLPLLQPRYYSVSSAPSTHPGEIHLTVAVLAYRTQDGLGPLHYGVCSTWLSQLKPGDPVPCFIRGAPSFRLPPDPSLPCILVGPGTGIAPFRGFWQERLHDIESKGLQPTPMTLVFGCRCSQLDHLYRDEVQNAQQRGVFGRVLTAFSREPDNPKTYVQDILRTELAAEVHRVLCLERGHMFVCGDVTMATNVLQTVQRILATEGDMELDEAGDVIGVLRDQQRYHEDIFGLTLRTQEVTSRIRTQSFSLQERQLRGAVPWAFDPPGSDTNSP
Question: Which “enzymatic_activity, fold_change” value does the source give for B1 here?
Answer: decreases, compared with T866A-eNOS, the activity of WT-eNOS was increased 8 to 10 folds
